Measured values: patent publication CN116970083A (SHANGHAI UNICAR THERAPY BIO MEDICINE TECH CO LTD, dated 2023)

T1: Human TROP-2/TACSTD2 Protein, His Tag (带有His标签的人滋养层细胞表面抗原2(Trop2)胞外段蛋白) (human, UniProt P09758 27-274)
T1 construct: extracellular domain; Bought protein; also called Trop2-His; Trop2抗原; not shown: His tag
T1 sequence (looked up): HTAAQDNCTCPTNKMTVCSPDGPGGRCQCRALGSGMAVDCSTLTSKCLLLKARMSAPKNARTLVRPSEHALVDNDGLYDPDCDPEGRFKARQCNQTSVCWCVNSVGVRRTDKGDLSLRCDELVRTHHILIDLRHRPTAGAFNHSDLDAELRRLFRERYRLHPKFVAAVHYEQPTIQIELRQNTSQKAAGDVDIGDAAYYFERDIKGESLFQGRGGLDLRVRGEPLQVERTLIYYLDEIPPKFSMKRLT

B1: T3单克隆抗体 (T3抗Trop2单克隆抗体) (antibody, human IgG1, kappa, V domains shown)
VH: EVQLVQSGGGLVQPGGSLRLSCEDSGFTFSSYWMSWVRQAPGKGLEWVSSISSSSSYIYYADSVKGRFTISRDNAKNSLYLQMNSLRGEDTAVYYCAREQSSSGFDYWGQGTLVTVSS
VL: DIQMTQSPSTLSASVGDRVTITCRASQSISSWLAWYQQKPGKAPKLLIYKASSLESGVPPRFSGSGSGAEFTLTISSLQPDDFATYYCQQYNSYPLTFGGGTKVEVKR
notes: also called Trop2抗体
B2: 抗Trop2阳性克隆3 (T3), scFv displayed on phage (scFv)
scFv: DIQMTQSPSTLSASVGDRVTITCRASQSISSWLAWYQQKPGKAPKLLIYKASSLESGVPPRFSGSGSGAEFTLTISSLQPDDFATYYCQQYNSYPLTFGGGTKVEVKGGGGSGGGGSGGGGSEVQLVQSGGGLVQPGGSLRLSCEDSGFTFSSYWMSWVRQAPGKGLEWVSSISSSSSYIYYADSVKGRFTISRDNAKNSLYLQMNSLRGEDTAVYYCAREQSSSGFDYWGQGTLVTVSS
notes: Tested as phage supernatant (scFv on M13 phage); also called T3单克隆; T3抗Trop2 scFv

How the values were obtained:
[1] = target: Trop2 on the surface of tumour cell lines (H1975, MDA-MB-231, Bxpc3, T24, PC-9) (UniProt P09758); assay: flow cytometry on MDA-MB-231 cells, antibody 5ug/ml, anti-Fc PE; blank cells without antibody MFI 938
[2] = target: Trop2 on the surface of tumour cell lines (H1975, MDA-MB-231, Bxpc3, T24, PC-9) (UniProt P09758); assay: flow cytometry on Bxpc3 cells, antibody 5ug/ml, anti-Fc PE; blank cells without antibody MFI 557
[3] = target: T1, Human TROP-2/TACSTD2 Protein, His Tag …; assay: ELISA, Trop2-His coated at 1ug/ml, antibody diluted 3.3-fold from 5ug/ml, anti-human IgG-Fc HRP
[4] = target: Trop2 on the surface of tumour cell lines (H1975, MDA-MB-231, Bxpc3, T24, PC-9) (UniProt P09758); assay: flow cytometry on H1975 cells, antibody 5ug/ml, anti-Fc PE; blank cells without antibody MFI 621
[5] = target: T1, Human TROP-2/TACSTD2 Protein, His Tag …; assay: phage ELISA, Trop2-His coated at 1ug/ml, anti-M13-HRP, OD450

Row | Binder | MFI (Median fluorescence intensity) [1] | MFI (Median fluorescence intensity) [2] | binding result [3] | MFI (Median fluorescence intensity) [4] | binding result [5]
1 | B1 | 3150 | 174000 | binds | 65600 | 
2 | B2 |  |  |  |  | binds
